Target: TNRC6B, Q9UPQ9-2
Sequence (Q9UPQ9 other isoform, or with tags, fused parts or gaps): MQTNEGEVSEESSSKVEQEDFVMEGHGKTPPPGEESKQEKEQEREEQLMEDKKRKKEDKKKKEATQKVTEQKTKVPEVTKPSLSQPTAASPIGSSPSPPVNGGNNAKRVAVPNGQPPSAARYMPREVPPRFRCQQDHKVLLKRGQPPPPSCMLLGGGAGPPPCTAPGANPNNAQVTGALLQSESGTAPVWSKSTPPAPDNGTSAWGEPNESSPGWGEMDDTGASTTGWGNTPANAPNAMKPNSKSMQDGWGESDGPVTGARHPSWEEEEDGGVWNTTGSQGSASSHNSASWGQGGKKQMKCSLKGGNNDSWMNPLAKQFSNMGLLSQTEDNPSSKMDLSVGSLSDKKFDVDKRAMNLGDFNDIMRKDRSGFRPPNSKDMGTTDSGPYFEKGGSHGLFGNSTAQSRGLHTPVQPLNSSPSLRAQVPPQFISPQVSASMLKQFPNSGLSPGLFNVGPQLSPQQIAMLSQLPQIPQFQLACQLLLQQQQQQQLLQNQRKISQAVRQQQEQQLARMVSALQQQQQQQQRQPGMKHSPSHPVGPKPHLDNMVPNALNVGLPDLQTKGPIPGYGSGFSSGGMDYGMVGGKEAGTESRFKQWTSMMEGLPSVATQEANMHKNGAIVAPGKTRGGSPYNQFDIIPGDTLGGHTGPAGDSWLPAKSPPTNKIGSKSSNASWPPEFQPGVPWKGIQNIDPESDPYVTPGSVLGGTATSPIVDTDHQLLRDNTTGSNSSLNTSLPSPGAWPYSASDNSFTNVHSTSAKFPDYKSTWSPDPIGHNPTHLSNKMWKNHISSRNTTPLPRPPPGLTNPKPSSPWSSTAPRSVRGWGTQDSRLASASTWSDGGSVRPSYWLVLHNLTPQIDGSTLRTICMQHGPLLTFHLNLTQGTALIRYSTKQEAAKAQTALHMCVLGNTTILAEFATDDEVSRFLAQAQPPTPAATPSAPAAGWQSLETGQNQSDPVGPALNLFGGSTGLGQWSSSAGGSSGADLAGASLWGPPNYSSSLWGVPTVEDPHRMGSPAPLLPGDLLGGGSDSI

Protein argonaute-2 (Homo sapiens), Q9UKV8 R647A, sequence (Q9UKV8 whole entry R647A): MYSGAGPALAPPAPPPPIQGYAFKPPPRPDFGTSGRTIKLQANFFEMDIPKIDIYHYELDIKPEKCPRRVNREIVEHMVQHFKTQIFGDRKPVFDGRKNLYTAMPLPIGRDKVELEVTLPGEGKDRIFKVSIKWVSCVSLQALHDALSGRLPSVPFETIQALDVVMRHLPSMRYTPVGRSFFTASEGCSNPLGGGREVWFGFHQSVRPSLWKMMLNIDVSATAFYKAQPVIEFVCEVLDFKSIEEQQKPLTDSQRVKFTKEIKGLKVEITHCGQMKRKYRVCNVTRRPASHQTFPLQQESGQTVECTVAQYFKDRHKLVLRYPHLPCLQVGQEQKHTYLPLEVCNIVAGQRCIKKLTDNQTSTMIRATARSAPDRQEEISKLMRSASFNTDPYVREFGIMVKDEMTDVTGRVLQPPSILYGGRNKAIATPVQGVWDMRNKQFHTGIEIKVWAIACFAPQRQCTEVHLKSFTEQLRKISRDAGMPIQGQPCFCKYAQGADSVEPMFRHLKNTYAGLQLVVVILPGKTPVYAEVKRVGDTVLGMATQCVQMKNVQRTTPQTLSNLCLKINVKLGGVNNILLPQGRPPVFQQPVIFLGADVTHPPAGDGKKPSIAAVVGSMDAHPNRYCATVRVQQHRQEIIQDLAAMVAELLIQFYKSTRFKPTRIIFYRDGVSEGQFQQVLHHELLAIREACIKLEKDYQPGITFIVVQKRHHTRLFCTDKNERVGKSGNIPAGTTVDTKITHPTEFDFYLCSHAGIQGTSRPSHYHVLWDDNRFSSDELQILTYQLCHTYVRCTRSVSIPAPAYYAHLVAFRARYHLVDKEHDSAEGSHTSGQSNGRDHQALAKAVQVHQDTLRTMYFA
Protein argonaute-2 (Homo sapiens), Q9UKV8 Y805A, sequence (Q9UKV8 whole entry Y805A): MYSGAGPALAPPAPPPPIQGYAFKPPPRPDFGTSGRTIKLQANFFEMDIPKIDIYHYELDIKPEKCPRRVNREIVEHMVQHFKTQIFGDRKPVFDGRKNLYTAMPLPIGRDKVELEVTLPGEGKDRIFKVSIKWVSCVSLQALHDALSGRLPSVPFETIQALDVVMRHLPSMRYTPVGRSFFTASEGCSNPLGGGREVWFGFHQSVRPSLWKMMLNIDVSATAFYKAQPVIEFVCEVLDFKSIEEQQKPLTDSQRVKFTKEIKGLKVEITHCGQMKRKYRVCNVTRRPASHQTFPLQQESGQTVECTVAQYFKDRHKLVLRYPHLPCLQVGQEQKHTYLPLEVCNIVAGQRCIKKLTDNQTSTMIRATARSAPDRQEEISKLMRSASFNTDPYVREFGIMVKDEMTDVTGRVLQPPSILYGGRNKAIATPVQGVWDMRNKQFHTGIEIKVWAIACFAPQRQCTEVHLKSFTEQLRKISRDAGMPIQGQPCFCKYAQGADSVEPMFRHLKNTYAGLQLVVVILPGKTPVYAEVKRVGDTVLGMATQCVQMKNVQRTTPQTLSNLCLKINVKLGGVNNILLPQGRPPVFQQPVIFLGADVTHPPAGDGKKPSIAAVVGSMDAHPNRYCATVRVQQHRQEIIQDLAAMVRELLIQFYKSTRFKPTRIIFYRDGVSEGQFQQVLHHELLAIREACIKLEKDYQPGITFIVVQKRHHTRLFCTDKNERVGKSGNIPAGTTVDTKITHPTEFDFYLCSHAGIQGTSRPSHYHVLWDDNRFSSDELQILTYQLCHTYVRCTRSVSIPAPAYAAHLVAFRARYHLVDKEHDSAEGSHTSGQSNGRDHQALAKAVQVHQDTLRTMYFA
Protein argonaute-2 (Homo sapiens), Q9UKV8 F858A, sequence (Q9UKV8 whole entry F858A): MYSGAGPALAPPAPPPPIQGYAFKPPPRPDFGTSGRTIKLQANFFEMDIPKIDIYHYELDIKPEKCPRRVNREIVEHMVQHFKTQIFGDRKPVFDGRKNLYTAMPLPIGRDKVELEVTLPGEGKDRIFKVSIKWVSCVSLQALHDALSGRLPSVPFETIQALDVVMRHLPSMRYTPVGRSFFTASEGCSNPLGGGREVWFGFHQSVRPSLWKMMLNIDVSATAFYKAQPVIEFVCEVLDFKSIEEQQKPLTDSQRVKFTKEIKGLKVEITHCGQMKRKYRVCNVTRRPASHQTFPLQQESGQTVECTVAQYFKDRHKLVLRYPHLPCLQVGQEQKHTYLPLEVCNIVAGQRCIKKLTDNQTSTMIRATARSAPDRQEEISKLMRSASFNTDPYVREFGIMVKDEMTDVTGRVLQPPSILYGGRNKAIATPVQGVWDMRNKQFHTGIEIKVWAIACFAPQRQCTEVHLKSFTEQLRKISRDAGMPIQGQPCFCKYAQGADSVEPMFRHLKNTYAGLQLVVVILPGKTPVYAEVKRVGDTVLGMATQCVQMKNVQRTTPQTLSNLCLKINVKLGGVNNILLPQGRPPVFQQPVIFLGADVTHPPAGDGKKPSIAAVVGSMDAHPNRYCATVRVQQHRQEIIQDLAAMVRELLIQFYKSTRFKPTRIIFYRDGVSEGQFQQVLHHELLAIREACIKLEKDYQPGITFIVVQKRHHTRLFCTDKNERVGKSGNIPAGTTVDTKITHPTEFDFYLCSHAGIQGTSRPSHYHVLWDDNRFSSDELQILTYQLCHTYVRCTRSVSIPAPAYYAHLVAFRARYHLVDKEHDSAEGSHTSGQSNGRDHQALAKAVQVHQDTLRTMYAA
Protein argonaute-2 (Homo sapiens), Q9UKV8 V615A, sequence (Q9UKV8 whole entry V615A): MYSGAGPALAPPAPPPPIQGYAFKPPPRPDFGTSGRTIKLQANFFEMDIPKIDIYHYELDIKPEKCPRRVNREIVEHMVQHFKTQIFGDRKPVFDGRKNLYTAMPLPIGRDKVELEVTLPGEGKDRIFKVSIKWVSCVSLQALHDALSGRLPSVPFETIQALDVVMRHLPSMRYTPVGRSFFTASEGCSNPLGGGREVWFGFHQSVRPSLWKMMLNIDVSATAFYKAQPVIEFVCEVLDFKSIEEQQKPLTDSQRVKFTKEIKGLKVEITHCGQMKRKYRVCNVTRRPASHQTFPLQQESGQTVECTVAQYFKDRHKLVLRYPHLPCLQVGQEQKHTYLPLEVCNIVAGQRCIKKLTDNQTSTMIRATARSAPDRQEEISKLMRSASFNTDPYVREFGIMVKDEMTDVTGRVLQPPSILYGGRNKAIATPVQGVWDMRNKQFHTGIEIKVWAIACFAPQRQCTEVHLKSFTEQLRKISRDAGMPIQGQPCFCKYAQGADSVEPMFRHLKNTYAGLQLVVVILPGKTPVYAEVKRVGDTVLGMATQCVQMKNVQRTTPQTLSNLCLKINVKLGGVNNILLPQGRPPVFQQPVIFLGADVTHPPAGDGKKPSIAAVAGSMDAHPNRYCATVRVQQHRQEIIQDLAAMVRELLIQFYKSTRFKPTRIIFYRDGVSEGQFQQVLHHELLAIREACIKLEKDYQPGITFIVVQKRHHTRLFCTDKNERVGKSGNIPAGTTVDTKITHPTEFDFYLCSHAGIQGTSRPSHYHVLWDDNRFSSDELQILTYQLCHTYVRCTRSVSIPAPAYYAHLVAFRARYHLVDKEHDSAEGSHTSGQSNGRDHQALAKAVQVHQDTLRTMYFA

Row | Substance | effect of a mutation on the interaction
1 | Protein argonaute-2 (Homo sapiens), Q9UKV8 Y625A | disrupting interaction
2 | Protein argonaute-2 (Homo sapiens), Q9UKV8 V797A | disrupting interaction
3 | Protein argonaute-2 (Homo sapiens), Q9UKV8 F587A | decreasing interaction
4 | Protein argonaute-2 (Homo sapiens), Q9UKV8 Y784A | decreasing interaction
5 | Protein argonaute-2 (Homo sapiens), Q9UKV8 I592A | disrupting interaction
6 | Protein argonaute-2 (Homo sapiens), Q9UKV8 Y529A | disrupting interaction
7 | Protein argonaute-2 (Homo sapiens), Q9UKV8 F653A | disrupting interaction
8 | Protein argonaute-2 (Homo sapiens), Q9UKV8 Y805A | decreasing interaction
9 | Protein argonaute-2 (Homo sapiens), Q9UKV8 R812A | disrupting interaction
10 | Protein argonaute-2 (Homo sapiens), Q9UKV8 V615A | decreasing interaction
11 | Protein argonaute-2 (Homo sapiens), Q9UKV8 Y749A | decreasing interaction
12 | Protein argonaute-2 (Homo sapiens), Q9UKV8 Q545A | disrupting interaction strength
13 | Protein argonaute-2 (Homo sapiens), Q9UKV8 K533A | disrupting interaction
14 | Protein argonaute-2 (Homo sapiens), Q9UKV8 R583A | disrupting interaction
15 | Protein argonaute-2 (Homo sapiens), Q9UKV8 F858A | decreasing interaction
16 | Protein argonaute-2 (Homo sapiens), Q9UKV8 R647A | disrupting interaction

Reference: IntAct's records for PubMed 17891150
